Measured values reported in article doi:10.1101/2023.02.27.530186 (bioRxiv, 2023).

Legend:
[1] = target: T3 SAMase E68Q/Q94A, C-terminally His6-tagged (bacteriophage T3) (UniProt P07693); experiment: SEC-SAXS
[2] = target: T3 SAMase, wild type, C-terminally His6-tagged (bacteriophage T3) (UniProt P07693); experiment: SEC-SAXS
cryo-EM structure = target: the molecule itself; experiment: cryo-EM structure
[3] = target: T3 SAMase, wild type, C-terminally His6-tagged (bacteriophage T3) (UniProt P07693); experiment: cryo-EM structure
[4] = target: T3 SAMase E68Q/Q94A, C-terminally His6-tagged (bacteriophage T3) (UniProt P07693); experiment: mass photometry

B1: MetK, SAM synthase (methionine adenosyltransferase) of E. coli, endogenous (enzyme, UniProt P0A817 1-384, looked up)
chain: MAKHLFTSESVSEGHPDKIADQISDAVLDAILEQDPKARVACETYVKTGMVLVGGEITTSAWVDIEEITRNTVREIGYVHSDMGFDANSCAVLSAIGKQSPDINQGVDRADPLEQGAGDQGLMFGYATNETDVLMPAPITYAHRLVQRQAEVRKNGTLPWLRPDAKSQVTFQYDDGKIVGIDAVVLSTQHSEEIDQKSLQEAVMEEIIKPILPAEWLTSATKFFINPTGRFVIGGPMGDCGLTGRKIIVDTYGGMARHGGGAFSGKDPSKVDRSAAYAARYVAKNIVAAGLADRCEIQVSYAIGVAEPTSIMVETFGTEKVPSEQLTLLVREFFDLRPYGLIQMLDLLHPIYKETAAYGHFGREHFPWEKTDKAQLLRDAAGLK
- stoichiometry N (SAMase per MetK subunit (4:4)) [1]: 1
- stoichiometry N (SAMase per MetK subunit (4:4)) [2]: 1
- stoichiometry N (cryo-EM structure): 4
- stoichiometry N (SAMase per MetK subunit (4:4)) [3]: 1
- stoichiometry N (SAMase per MetK subunit (4:4)) [4]: 1
